Measurements as given in patent US20190135932A1 (Pfizer, published 2019).
Several values for one entry are separate records, joined by “and”; a condition that tells them apart may be missing. Identical values can stand only once.

Tests used:
[1] = target: T1, mouse OX40R on activated mouse T cells (mouse, UniProt P47741 20-272); experiment: FACS, Alexa Fluor 647 conjugated antibody on activated T cells
T1 construct: whole, on cells; also called mouse cells; murine OX40R
T1 sequence (looked up): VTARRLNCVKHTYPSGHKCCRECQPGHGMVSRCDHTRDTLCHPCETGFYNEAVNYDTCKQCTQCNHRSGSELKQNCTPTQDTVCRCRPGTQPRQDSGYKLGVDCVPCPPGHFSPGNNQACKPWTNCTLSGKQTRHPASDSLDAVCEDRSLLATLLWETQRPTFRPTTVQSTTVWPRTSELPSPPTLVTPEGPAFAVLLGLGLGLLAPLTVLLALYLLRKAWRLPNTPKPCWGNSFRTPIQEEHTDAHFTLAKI
Protocol: (§1) Rat whole blood collected in heparinized syringes was diluted 1:3 in warm HBSS. Next, 5 mls was carefully layered over an equal volume of Lympholyte-Rat (Cedarlane Laboratories, Westbury, N.Y.). The tubes were centrifuged for 20 minutes at 1500 RPM. The PBMCs interface was collected, washed twice and the cell pellet was re-adjusted to 2×10⁶/ml in TCM. Two mls of cells were added to each well of a 24 well plate and stimulated for 24-48 hours with PHA (Remel, Lenexa, Kans.) at 10 ng/ml prior to flow cytometry staining.
(§2) Stimulated mouse, rat, rabbit, dog and cynomolgus PBMCs and the 300-19 cell line expressing the cynomolgus OX40 receptor were used to test for human OX40 antibody species cross-reactivity. Human OX40 expressing activated T lymphocytes and OX40 transduced 300-19 cells were used as positive controls. Cells (5.0×10⁵/tube) were washed once in cold wash buffer (PBS, 2% FBS and 0.02% sodium azide) and 100 μl/tube of Alexa Fluor 647 conjugated control or OX40 reactive antibodies at 5 ug/ml was added to each tube. The antibodies were labeled using an Alex Fluor 647 protein labeling kit as described by the manufacturer (Molecular Probes, Eugene, Oreg.). […] Antibody staining was measured and analyzed using a Becton Dickinson FACSCalibur and CellQuest software (San Jose, Calif.).

[2] = target: T2, rat OX40R on activated rat T cells (rat, UniProt P15725 20-271); experiment: as above
T2 construct: whole, on cells; also called rat cells
T2 sequence (looked up): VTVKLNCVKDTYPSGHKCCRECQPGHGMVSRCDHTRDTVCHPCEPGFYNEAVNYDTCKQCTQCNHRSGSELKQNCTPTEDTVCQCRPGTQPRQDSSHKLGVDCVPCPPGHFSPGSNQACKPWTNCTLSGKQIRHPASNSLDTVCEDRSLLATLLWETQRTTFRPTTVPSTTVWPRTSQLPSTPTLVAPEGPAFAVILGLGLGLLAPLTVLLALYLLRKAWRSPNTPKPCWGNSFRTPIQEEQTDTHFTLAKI
Protocol: as §1, §2

[3] = target: T3, CD40-Ig (Alexis Biochemicals) (human, UniProt P25942 21-193); experiment: ELISA on coated receptor-Ig fusion proteins, against the EC50 on the OX40R fusion protein
T3 construct: extracellular domain; Bought; also called CD40 receptor
T3 sequence (P25942 21-193): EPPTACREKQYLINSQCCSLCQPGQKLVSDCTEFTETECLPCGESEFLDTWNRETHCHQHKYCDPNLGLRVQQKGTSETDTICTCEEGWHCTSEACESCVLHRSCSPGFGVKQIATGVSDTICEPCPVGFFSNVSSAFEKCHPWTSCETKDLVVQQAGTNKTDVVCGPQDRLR
Protocol: (§3) Maxisorb 96-well plates (Nunc, Roskilde, Denmark) were coated with 100 μl of human TNFα receptor family member fusion proteins at 0.25 μg/ml diluted in BupH™ Carbonate buffer, pH 9.4 (Pierce, Rockford, Ill.) and incubated overnight at 4° C. The selectivity receptor fusion proteins tested included CD40-Ig (Alexis Biochemicals, San Diego, Calif.), CD137-Ig (R&D Systems, Minneapolis, Minn.) and CD271-Ig (Alexis Biochemicals, San Diego, Calif.). Also included as the positive control with each assay was the OX40-Ig fusion protein (in-house construct, Bioexpress, 97/2117). Plates were then washed three times with wash buffer containing 0.05% Tween 20 (Sigma, St Louis, Mo.) diluted in PBS and blocked with 300 μl of 0.5% BSA (Sigma, St Louis, Mo.) in PBS (Sigma, St Louis, Mo.) for 1 hour at RT°. Next, the plates were washed and 100 μl/well of anti-human OX40 reactive antibodies were added to the plates at various concentrations and incubated for 1 hour at RT°. Plates were thoroughly washed three times and OX40R antibody binding was detected with a horse radish peroxidase labeled anti-human kappa chain antibody (Bethyl Laboratories, Montgomery, Tex.) at 25 ng/ml for 1 hour at RD°. Plates were then washed three times which was followed by the addition of 100 μl/well of 1-Step Turbo-TMB substrate (Pierce, Rockford, Ill.) for 30 minutes at RT. The reaction was stopped by adding an equal volume of 2M H₂ SO₄. Absorbance was read at 450 nm on a Molecular Devices Spectra Max 340 (Molecular Devices, Sunnyvale, Calif.).

[4] = target: T4, CD271-Ig (Alexis Biochemicals) (human, UniProt P08138 29-250); experiment: as above
T4 construct: extracellular domain; Bought; also called nerve growth factor receptor (CD271)
T4 sequence (P08138 29-250): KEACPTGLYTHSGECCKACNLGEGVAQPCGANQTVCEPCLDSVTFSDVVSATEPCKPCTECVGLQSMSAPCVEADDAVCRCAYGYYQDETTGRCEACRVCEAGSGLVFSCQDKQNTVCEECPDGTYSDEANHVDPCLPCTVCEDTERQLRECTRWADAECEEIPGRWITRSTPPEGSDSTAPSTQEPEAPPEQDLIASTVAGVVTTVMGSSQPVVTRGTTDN
Protocol: as §3

[5] = target: T5, CD137-Ig (R&D Systems) (human, UniProt Q07011 24-186); experiment: as above
T5 construct: extracellular domain; Bought; also called 4-1BB receptor (CD137)
T5 sequence (Q07011 whole entry, the tested form may be a part): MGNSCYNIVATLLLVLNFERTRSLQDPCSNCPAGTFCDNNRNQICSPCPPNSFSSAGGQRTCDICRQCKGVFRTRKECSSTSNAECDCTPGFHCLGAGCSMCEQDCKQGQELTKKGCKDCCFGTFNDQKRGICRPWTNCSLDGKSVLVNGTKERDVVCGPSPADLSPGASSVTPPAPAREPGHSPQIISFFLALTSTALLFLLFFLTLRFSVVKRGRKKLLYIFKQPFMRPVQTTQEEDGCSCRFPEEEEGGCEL
Protocol: as §3

[6] = target: T6, OX40R extracellular and transmembrane domain fused to the intracellular domain of CD40, in 293 cells with an … (UniProt P43489 29-235; P25942 216-277, limits assumed); experiment: cell-based or functional assay
T6 sequence (looked up): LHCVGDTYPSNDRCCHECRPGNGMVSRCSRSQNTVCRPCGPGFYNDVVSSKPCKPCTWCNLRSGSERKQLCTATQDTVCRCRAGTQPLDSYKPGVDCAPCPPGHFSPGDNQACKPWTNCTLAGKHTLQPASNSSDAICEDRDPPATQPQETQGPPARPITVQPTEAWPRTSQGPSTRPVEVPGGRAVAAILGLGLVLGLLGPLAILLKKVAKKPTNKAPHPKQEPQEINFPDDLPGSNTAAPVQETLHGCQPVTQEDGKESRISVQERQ

B1: human monoclonal antibody 11D4 (antibody, V domains shown)
VH: EVQLVESGGGLVQPGGSLRLSCAASGFTFSSYSMNWVRQAPGKGLEWVSYISSSSSTIDYADSVKGRFTISRDNAKNSLYLQMNSLRDEDTAVYYCARESGWYLFDYWGQGTLVTVSS
VL: DIQMTQSPSSLSASVGDRVTITCRASQGISSWLAWYQQKPEKAPKSLIYAASSLQSGVPSRFSGSGSGTDFTLTISSLQPEDFATYYCQQYNSYPPTFGGGTKVEIKR
notes: IgG2 heavy chain, kappa light chain; allotypes G2(n-) and Km3; Alexa Fluor 647 conjugate was used in the species cross-reactivity FACS
binding result [1]: no binding (tested: 5 ug/ml)
binding result [2]: no binding (tested: 5 ug/ml)
fold selectivity for the OX40R over this receptor [3]: > 100 fold
fold selectivity for the OX40R over this receptor [4]: > 100 fold
fold selectivity for the OX40R over this receptor [5]: > 100 fold
In vitro stimulation of OX40R+ transfected cells (luciferase) (EC50; N = 4) [6]: 0.33 µg/ml and 2.2 nM
